Results on 1 substance are retold here after patent US20170051065A1 (Hoffmann-La Roche, published 2017).

The target in experiment [1] is human mutant CSF-1R L301S Y969F (human) (UniProt P07333). Briefly: cell-based or functional assay.
Experiment [2] addresses human wildtype CSF-1R (wt CSF-1R) (human, UniProt P07333 20-972). Briefly: cell-based or functional assay.

For the substance “goat polyclonal anti-CSF-1R antibody ab10676 (abcam)”, in experiment [1], the Mutant CSF-1R IC30 (cell viability of NIH3T3 mutant CSF-1R spheroids, CellTiterGlo) was > 20 µg/mL and the inhibition of cell viability at 20 µg/ml (mutant CSF-1R spheroids) amounted to 0%. For the same substance, in experiment [2], the wtCSF-1R IC30 (cell viability of NIH3T3-CSF-1R spheroids, CellTiterGlo) is 14.2 µg/mL.
